Source: publication doi:10.1101/2023.11.28.569054 (bioRxiv, 2023)
Each block holds one binder with its values, some of them ahead of it.

B4: NCLN (natural protein)
chain: AHEFTVYRMQQYDLQGQPYGTRNAVLNTEARTMAAEVLSRRCVLMRLLDFSYEQYQKALRQSAGAVVIILPRAMAAVPQDVVRQFMEIEPEMLAMETAVPVYFAVEDEALLSIYKQTQAASASQGSASAAEVLLRTATANGFQMVTSGVQSKAVSDWLIASVEGRLTGLGGEDLPTIVIVAHYDAFGVAPWLSLGADSNGSGVSVLLELARLFSRLYTYKRTHAAYNLLFFASGGGKFNYQGTKRWLEDNLDHTDSSLLQDNVAFVLCLDTVGRGSSLHLHVSKPPREGTLQHAFLRELETVAAHQFPEVRFSMVHKRINLAEDVLAWEHERFAIRRLPAFTLSHLESHRDGQRSSIMDVRSRVDSKTLTRNTRIIAEALTRVIYNLTEKGTPPDMPVFTEQMQIQQEQLDSVMDWLTNQPRAAQLVDKDSTFLSTLEHHLSRYLKDVKQHHVKADKRDPEFVFYDQLKQVMNAYRVKPAVFDLLLAVGIAAYLGMAYVAVQHFSLLYKTVQRLLVKAKTQ

Experiments:
Experiment in all cases: cryo-EM structure
NCLN = target: B4
NCLN of BOS (tNOMO) = target: T1, NCLN of BOS (tNOMO) (human, UniProt Q969V3 43-563)
T1 sequence: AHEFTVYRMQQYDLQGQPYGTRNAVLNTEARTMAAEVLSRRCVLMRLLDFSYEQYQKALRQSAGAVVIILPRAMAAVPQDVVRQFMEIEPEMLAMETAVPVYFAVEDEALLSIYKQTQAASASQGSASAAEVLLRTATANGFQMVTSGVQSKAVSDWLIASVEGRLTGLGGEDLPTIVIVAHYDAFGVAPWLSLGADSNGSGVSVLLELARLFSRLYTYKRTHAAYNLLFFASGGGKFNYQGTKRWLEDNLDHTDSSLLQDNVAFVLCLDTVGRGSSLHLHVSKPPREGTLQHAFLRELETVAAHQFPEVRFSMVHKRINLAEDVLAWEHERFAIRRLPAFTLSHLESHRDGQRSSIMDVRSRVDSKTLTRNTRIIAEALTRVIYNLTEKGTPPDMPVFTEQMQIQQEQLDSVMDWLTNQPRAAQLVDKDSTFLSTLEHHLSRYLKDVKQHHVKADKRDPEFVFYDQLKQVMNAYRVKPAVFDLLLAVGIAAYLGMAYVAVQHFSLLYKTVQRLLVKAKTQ

[1] = target: T2, TMEM147 of TMEM147-5aa-TEV-GFP-40aa(ALFA)-EMC2 (human, UniProt Q9BVK8 1-224)
T2 sequence: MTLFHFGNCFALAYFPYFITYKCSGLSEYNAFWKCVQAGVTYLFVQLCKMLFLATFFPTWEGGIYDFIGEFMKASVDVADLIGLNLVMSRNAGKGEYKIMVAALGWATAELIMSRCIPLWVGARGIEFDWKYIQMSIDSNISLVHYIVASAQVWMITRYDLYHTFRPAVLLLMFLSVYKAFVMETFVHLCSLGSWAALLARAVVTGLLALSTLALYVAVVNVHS

EMC1 = target: T3, EMC1 (human (endogenous in Expi293), UniProt Q8N766 23-993)
T3 sequence: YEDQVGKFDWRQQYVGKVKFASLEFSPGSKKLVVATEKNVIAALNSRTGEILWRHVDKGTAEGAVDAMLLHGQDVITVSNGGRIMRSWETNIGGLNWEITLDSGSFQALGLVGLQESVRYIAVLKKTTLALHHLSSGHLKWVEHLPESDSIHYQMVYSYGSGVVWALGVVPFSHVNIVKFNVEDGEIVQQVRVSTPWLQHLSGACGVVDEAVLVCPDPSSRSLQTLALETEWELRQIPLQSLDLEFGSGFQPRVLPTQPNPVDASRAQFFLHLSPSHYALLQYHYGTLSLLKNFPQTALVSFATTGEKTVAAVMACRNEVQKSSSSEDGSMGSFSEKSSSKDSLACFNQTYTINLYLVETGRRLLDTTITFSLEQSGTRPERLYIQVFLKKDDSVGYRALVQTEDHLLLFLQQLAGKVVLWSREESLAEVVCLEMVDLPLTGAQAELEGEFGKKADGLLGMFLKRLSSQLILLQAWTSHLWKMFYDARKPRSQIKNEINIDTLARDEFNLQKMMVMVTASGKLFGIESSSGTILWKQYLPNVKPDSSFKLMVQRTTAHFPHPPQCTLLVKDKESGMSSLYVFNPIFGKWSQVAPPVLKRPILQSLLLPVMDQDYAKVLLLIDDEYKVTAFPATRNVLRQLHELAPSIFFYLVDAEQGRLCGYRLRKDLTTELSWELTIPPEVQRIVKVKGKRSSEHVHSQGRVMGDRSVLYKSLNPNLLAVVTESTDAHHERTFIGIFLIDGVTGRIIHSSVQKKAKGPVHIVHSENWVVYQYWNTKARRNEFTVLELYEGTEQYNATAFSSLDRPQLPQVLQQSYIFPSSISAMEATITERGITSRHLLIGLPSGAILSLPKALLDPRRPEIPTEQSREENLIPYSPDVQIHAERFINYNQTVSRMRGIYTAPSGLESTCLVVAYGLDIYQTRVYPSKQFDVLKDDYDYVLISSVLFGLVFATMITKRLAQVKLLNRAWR

binding result (NCLN): binds
B1: TMEM147-GFP (natural protein)
chain: MTLFHFGNCFALAYFPYFITYKCSGLSEYNAFWKCVQAGVTYLFVQLCKMLFLATFFPTWEGGIYDFIGEFMKASVDVADLIGLNLVMSRNAGKGEYKIMVAALGWATAELIMSRCIPLWVGARGIEFDWKYIQMSIDSNISLVHYIVASAQVWMITRYDLYHTFRPAVLLLMFLSVYKAFVMETFVHLCSLGSWAALLARAVVTGLLALSTLALYVAVVNVHS

binding result (NCLN of BOS (tNOMO)): binds
B2: TMEM147 (from TMEM147-TEV-GFP, tag removed) (natural protein)
chain: MTLFHFGNCFALAYFPYFITYKCSGLSEYNAFWKCVQAGVTYLFVQLCKMLFLATFFPTWEGGIYDFIGEFMKASVDVADLIGLNLVMSRNAGKGEYKIMVAALGWATAELIMSRCIPLWVGARGIEFDWKYIQMSIDSNISLVHYIVASAQVWMITRYDLYHTFRPAVLLLMFLSVYKAFVMETFVHLCSLGSWAALLARAVVTGLLALSTLALYVAVVNVHS

binding result [1]: binds
B3: EMC5 (natural protein)
chain: MAPSLWKGLVGIGLFALAHAAFSAAQHRSYMRLTEKEDESLPIDIVLQTLLAFAVTCYGIVHIAGEFKDMDATSELKNKTFDTLRNHPSFYVFNHRGRVLFRPSDTANSSNQDALSSNTSLKLRKLESLRR

Binder: B4
binding result (EMC1): binds
